Results published in paper PMC5732302 (2017).

Biological target: dynein (Saccharomyces cerevisiae, UniProt P36022)
Sequence (P36022 whole entry): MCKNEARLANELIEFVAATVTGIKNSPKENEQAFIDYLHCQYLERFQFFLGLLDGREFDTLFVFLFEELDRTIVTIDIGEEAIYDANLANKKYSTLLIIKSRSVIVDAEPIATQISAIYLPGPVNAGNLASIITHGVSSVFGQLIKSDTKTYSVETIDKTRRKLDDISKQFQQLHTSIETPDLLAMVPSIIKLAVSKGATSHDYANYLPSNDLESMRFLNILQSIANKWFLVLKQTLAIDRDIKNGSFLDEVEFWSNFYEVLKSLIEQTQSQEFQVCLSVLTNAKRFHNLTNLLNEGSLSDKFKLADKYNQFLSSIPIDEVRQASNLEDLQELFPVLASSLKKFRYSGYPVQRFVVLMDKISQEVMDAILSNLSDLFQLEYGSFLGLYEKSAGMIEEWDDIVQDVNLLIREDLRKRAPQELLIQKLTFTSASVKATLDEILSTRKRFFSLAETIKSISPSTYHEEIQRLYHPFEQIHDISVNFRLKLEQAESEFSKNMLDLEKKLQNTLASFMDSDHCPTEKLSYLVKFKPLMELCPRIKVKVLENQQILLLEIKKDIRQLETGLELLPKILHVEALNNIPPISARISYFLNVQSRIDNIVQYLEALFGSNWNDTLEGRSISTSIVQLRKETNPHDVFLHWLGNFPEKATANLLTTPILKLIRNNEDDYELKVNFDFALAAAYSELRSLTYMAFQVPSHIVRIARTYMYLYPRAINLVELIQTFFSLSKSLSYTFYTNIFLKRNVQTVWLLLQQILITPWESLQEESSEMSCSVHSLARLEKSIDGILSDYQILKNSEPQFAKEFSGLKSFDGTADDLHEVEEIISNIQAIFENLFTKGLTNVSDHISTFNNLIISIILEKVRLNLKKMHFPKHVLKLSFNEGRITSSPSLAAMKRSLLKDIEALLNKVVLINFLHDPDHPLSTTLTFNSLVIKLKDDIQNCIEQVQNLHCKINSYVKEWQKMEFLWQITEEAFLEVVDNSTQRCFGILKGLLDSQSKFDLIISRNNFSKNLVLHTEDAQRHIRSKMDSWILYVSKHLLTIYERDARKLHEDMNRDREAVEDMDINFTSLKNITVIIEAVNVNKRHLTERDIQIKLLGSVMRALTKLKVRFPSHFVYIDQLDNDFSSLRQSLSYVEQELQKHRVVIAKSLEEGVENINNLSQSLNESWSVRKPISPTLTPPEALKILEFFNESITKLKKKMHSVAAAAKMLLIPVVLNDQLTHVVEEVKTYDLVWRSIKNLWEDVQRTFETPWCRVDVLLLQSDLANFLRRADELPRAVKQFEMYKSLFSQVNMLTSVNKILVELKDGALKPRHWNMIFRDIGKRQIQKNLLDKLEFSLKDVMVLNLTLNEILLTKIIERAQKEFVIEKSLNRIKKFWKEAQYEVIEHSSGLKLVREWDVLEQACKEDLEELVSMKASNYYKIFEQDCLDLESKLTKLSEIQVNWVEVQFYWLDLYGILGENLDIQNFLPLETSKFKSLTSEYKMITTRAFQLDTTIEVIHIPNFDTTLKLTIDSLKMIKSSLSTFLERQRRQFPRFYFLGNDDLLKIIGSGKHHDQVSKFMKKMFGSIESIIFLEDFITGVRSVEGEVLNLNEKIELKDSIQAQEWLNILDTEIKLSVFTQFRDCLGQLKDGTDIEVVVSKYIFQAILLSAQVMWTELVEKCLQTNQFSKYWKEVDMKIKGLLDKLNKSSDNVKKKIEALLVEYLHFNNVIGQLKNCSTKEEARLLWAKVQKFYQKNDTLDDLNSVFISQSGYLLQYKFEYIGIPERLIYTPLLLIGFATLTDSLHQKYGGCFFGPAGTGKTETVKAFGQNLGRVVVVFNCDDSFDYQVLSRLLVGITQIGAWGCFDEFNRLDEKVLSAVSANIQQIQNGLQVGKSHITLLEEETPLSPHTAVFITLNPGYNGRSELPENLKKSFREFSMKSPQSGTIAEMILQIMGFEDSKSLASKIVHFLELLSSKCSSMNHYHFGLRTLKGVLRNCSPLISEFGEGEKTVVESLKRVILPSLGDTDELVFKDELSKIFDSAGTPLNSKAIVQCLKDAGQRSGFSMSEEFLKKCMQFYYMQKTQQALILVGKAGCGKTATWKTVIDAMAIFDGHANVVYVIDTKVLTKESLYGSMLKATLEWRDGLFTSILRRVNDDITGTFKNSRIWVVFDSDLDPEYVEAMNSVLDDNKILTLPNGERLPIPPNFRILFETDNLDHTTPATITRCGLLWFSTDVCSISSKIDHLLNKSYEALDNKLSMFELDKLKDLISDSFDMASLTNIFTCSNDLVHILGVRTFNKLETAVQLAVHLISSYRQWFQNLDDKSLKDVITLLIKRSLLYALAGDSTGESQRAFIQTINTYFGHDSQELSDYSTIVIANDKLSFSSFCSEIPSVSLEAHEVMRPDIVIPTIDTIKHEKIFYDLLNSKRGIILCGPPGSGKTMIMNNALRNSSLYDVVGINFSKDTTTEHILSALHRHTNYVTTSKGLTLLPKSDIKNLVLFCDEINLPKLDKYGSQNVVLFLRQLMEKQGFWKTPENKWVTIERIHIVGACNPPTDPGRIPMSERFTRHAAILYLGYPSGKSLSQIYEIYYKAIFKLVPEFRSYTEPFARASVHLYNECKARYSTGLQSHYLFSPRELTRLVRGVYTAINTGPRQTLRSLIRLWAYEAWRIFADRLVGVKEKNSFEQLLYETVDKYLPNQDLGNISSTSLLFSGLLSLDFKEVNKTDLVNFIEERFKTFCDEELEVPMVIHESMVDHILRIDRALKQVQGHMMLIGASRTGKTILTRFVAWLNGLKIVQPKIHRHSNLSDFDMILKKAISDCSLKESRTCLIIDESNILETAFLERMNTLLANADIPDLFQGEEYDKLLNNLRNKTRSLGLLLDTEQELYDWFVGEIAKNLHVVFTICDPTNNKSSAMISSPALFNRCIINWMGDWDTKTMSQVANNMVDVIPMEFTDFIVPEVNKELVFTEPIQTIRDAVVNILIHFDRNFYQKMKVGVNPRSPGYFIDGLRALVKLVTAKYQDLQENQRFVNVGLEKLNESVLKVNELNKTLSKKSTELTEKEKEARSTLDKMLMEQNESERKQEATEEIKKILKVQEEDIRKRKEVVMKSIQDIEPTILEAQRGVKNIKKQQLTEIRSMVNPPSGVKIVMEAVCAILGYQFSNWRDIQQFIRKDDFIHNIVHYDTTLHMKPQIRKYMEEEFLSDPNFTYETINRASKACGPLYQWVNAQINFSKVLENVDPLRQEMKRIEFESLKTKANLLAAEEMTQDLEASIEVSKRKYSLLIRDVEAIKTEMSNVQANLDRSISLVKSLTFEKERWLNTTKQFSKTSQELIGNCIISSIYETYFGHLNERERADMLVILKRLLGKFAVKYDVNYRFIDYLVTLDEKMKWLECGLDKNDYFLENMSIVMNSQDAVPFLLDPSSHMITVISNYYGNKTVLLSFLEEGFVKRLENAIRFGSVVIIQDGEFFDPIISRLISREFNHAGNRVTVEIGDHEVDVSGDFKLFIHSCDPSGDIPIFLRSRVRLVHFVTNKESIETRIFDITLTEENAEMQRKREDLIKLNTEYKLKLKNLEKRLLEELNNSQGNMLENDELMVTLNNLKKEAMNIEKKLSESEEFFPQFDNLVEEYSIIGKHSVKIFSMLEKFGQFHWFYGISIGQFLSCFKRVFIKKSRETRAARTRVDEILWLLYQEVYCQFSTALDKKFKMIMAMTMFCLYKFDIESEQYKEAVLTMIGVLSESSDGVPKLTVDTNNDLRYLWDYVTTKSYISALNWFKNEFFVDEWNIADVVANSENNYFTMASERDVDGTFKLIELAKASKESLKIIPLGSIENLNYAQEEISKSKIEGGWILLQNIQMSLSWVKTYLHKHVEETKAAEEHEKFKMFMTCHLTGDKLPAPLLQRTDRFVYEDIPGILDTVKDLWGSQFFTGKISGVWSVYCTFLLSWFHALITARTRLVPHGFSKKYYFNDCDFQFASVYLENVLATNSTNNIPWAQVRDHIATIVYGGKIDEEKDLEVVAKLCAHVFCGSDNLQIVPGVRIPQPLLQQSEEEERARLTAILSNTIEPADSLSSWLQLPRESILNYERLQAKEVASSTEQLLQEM

B1: She1 (protein)
chain: MNDKLQEEHNEKDTTSQINGFTPPHMSIDFHSNNNSNIIETIGVSKRLGNSVLSELDSRASSKFEFLKDQSEQQYNGDKNNEPKSGSYNINEFFQAKHDSQFGQMESLDTHYTLLHTPKRKSQHAIPQDRSDSMKRSRPSRSIPYTTPVVNDITRRIRRLKLRNSLVNGNDIVARARSMQANSNINSIKNTPLSKPKPFMHKPNFLMPTTNSLNKINSAHRNTSSSSTASSIPRSKVHRSISIRDLHAKTKPVERTPVAQGTNSQLKNSVSVFDRLYKQTTFSRSTSMNNLSSGTSAKSKEHTNVKTRLVKSKTSGSLSSNLKQSTATGTKSDRPIWR
Kd: < 0.2 nM
